The target of the test is Cdc37 (Cell division cycle protein 37) (human (endogenous in MDA-MB-453 and MDA-MB-231)) (UniProt Q16543). Briefly: co-IP; membrane fractions of MDA-MB-453 and MDA-MB-231 cells immunoprecipitated with anti-Cdc37 (18 h, 4°C, protein G-Sepharose), Western blot with anti-HSP90, anti-HER2, anti-EGFR; cells cultured in control medium or with 200 µg/ml anti-Cdc37 or 200 µg/ml mAb 4C5 for 16 h; densitometry. Background: In western blotting, separated proteins are transferred to a membrane and probed.
Sequence of UniProt Q16543 (Q16543 whole entry): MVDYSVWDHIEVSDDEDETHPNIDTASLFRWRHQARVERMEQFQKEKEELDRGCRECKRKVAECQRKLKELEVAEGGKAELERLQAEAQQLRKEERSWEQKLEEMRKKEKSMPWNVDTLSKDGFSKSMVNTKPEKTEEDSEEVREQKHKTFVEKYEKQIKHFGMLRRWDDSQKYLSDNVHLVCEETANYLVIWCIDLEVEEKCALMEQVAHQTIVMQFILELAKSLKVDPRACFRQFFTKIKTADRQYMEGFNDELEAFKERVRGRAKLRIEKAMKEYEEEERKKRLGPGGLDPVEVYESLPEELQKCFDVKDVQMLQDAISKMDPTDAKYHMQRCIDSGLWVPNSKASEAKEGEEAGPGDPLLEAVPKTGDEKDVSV

Take “HSP90 (from UniProt P07900 1-732) (natural protein)”: the percent decrease of the co-precipitate with 200 µg/ml anti-Cdc37 in the medium (MDA-MB 231) is 56%, the percent decrease of the co-precipitate with 200 µg/ml anti-Cdc37 in the medium (MDA-MB 453) stood at 33%, the percent decrease of the co-precipitate with 200 µg/ml mAb 4C5 in the medium (MDA-MB 231) is 88% and the percent decrease of the co-precipitate with 200 µg/ml mAb 4C5 in the medium (MDA-MB 453) is 60%.

For the origin of these results see article PMC3422348.
